Laboratory results taken from paper doi:10.1101/2023.09.18.558353.

Molecular target: SARS-CoV-2 wild-type (WT) spike protein trimer (SARS-CoV-2) (UniProt P0DTC2)
Assay: SPR

Substance: LCB1 mini-binder protein (designed binder)
- Kd: 1.22 nM
